In paper PMC11573651 one finds stoichiometry N data, which are given here for one substance.

For orientation: stoichiometry N means the number of molecules, sites or subunits per partner or assembly.

In this experiment the target is His-NifH^RS (Roseiflexus sp. RS-1 dinitrogenase reductase NifH) (Roseiflexus sp. RS-1). In words: not stated; molecular size and quaternary structure of the purified protein (Table 1); the method is in SI Appendix Figs. S8, S9, S14 and S15.

Substance “His-NifH^RS (Roseiflexus sp. RS-1 dinitrogenase reductase NifH) (natural protein)” registered a stoichiometry N of 2.
